Target: Mat1 (230-309) (human, UniProt P51948)
Assay: crystal structure

Sequence of Mat1 (230-309) (P51948 230-309): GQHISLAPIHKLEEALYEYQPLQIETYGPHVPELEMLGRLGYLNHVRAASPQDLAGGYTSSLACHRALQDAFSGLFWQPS

B1: VHH_(RD7-04), construct for co-crystallization (VHH)
VHH: QVQLVESGGGLVQPGGSLRLSCVASGFTFKNFYMGWVRQAPDKGLEWVATINSGGEIQSYADSVKGRFTISRDNAKNTLYLQMNNLRPEDTAVYYCSKQSSTPAKGQGTQVTVSS
- binding result: binds

— paper PMC10888979 (bioRxiv, 2024)
